In patent publication US20200087662, “INHIBITION OF POLY(A) BINDING PROTEIN AND THE TREATMENT OF PAIN” (Board of Regents, The University of Texas System, published 2020):

Biological target: PABPC1 (residues 1-383) (Homo sapiens, UniProt P11940 P11940:1-383)
Assay: FP; 50 mM HEPES, 5 mM EDTA, 250 mM KCl, 10 mM DTT, 0.5 mg/mL BSA, 0.05% Tween-20, yeast total RNA competitor
Details: label: Cy3 or 3' biotin
Method: Equilibrium dissociation constants were determined by florescence anisotropy measurements of either unmodified adenosine 12 nucleotide RNA or the Poly(A) SPOT-ON to recombinant human PABPC1 (residues 1-383). Binding reactions were conducted in 50 μL of buffer containing 50 mM HEPES, 5 mM EDTA, 250 mM KCl, 10 mM DTT, 0.5 mg/mL BSA, 0.05% Tween-20, 0.1 mg/mL yeast competitor total RNA (Ambion), and 0.5 nM Cy3-labeled RNA. Measurements were recorded on a Tecan Spark multimode plate reader in triplicate. Data were fit using Kalidagraph as described⁶³

Sequence of PABPC1 (residues 1-383) (P11940 1-383, one chain of several): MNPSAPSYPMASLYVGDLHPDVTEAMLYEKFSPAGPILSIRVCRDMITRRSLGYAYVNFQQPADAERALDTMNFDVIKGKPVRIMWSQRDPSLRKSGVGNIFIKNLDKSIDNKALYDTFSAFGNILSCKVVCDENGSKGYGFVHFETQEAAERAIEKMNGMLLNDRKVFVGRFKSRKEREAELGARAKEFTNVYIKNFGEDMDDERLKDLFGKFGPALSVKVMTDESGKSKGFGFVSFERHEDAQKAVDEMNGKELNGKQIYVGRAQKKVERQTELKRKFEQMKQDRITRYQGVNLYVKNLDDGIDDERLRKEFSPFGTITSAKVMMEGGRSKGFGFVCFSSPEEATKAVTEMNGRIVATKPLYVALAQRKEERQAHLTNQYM

**Q.** AAAAAAAAAAAA (ssRNA, 2'-OMe at all riboses; PS at the 5'-most and 3'-most linkages) [Poly(A) SPOT-ON] was tested. Which Kd did it give?
**A.** 301 nM
